This data set can be described thus: yeast display, Sf9 membrane polyspecificity reagent, FACS + sequencing; frameworks hold sequencing errors. The essentials:
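Using colony PCR, genes from sorted yeast display clones were amplified, then sequenced on MiSeq at 2 × 250 and filtered by CDR length. The clones had been stained with 10% biotinylated, detergent-solubilized Sf9 membrane reagent for 1 hour at 4 °C and sorted by FACS into low and high (top ~1%) gates on anti-HA and streptavidin fluorescence. Polyreactivity labels come from the gate of origin.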
Consider “QVQLVESGGGLVQAGGSLRLSCAASGRIFGAYAMGWYRQAPGKERELVATITKRGGSTFYADSVKGRFTISRDNAKNTVYVKMNSLKPEDTAVYYCAVVRYSPKRYWYGYWGQGTQVTVSS”, for which the “polyreactivity (PSR sort gate)” value is recorded as “high polyreactivity”. The value for “QVQLLESGGGLVQAGGSLRLSCAASGSTFRSYAMGWYRQATGKERELVAAISGRGGNTYYADSVKGRFTISRDNAKNTVYLQMNSLKPEDTAVYYCARKTVYYGSDYWGQGTQVTVSS” was “high polyreactivity”; that for “QVQLVESGGGLVQAGGSLRLSCAASGSIFKKYAMGWYRQAPGKERELVAAISSGGGSTYYADSVKGRFTISRDNAKNTVYLQMNSLKPEDTAVYYCNARIQYFKYRGYEYWGQGTQVTVSS” was “high polyreactivity”. The entry for “QVQLVESGGGLVQAGGSLRLSCAASGSIFDHYVMGWYRQSPGKERELVAAITSGDRTNYADSVKGRFTISRDNAKNTVYLQMNSLKPEDTAVYYCNADYQSYFYYTTWYYEYDYWGQGTQVTVSS” is “low polyreactivity”; for “QVQLVESGGGLVQAGGSLRFSCAASGSTFSYYAMGWYRQAPRKEREFVAAMSWNGGSTYYADSVKGRYTISRDNAKNTVYLHMNSLKPEDTEVYYCAADFKYGYSHGFRQRLYDYWGQGTQVTVSS” it is “low polyreactivity”. The value for “QVQLVESGGGLVQAGGSLRLSCAASGRTFTVYTMGWYRQAPGKERELVAVISTGGRTYYADSVKGRFTISRDNAMNTVYLQMNSLKPEDTAVYYCAAKFTREYYWGQGTQVTVSS” was “high polyreactivity”; that for “QVQLVESGGGLVQAGGSLRLSCAASGIIFSPYARGWYRQAPGKERELVAAISYSGGSTYYADSVKGRFTISRDNAKNTVYLQMNSLKPEDTAVYYCAVVYSYYLAVLGYWDYDYWGQGTQVTVSS” was “low polyreactivity”; that for “QVQLGESGGGLVQAGGSLRLSCAASGSIFGSYAMGWYRQAPGKERELVAAISKSGGNTYYADSVKGRFTISRDNAKNTDYLQMNSLKPEDTAVYYCAAYGFYRWRGYDYWGQGTQVTLSS” was “high polyreactivity”. For “QVQLVESGGGLVQAGGSLRLSCAASGFIFHVYAMGWYRQAPGKERELVARITSSGGNTFYADSVKGRFTISRDNAKNTVYLQMNSLKPEDTAVYYCAKRYRYSVGWPVKNSAFGYWGQGTQVTVSS”, the “polyreactivity (PSR sort gate)” value is “low polyreactivity”. The value for “QVQLVESGAGLVQAGGSLRISCAASGSIFTNAMGWYRQAPGKERELVAAISSSGGSTYYADSVKGRFTISRDNANNTVYLQMNSLKPEDTAVYYCAADHYGGRDYWGQGTQVTVSS” was “low polyreactivity”; that for “QVQLVESGGGLVQAGGSLRLSCAASGSTFRVYAMGWYRQAPGKERELVAAITKSGGSTYYADSVKGRFTISRDNAKNTVYLQMNSLKPEDTEVYYCAADKSWTRYGFYWGQGTQLTVSS” was “high polyreactivity”; that for “QVQLVESGGGLVQAGGSLRLSCAASGFTSAPYAMGWNRQAPGKERELVAAISSGDTTSYADSVKGRFTISRDNEKNTVYFQMNSLKPEDTAVYYCAAVYFNVIESYKTAGYDYWGQGTQVTVSS” was “low polyreactivity”. Regarding “QVQLVESGGGLVQAGGSLRLRCAASGSTFYIYAMGWYRPAPGKERELVARISGSGGSTYYADSVKGRFTISRDNAKNTVYLQMNSLKPEDTSVYSCAAQRRVVGRHGLSLIRYDYWGQGTQVTVSS”, the “polyreactivity (PSR sort gate)” value is “low polyreactivity”. Regarding “QVQLVESGGCLVQAGGSLRLSCSASGIIFFPYAMGWYRQAPGKERELVASINISDSSTYYADSVNGRFTISRDNAKNTVYLQMNTLKPEDSAVSYCAADNPGDSWYWHGNWGQGTQVTVSS”, the “polyreactivity (PSR sort gate)” value is given as “low polyreactivity”. The entry for “QVQLVESGGGLVQAGGRIRLSCAASGIIFYPYAMGWYRQAPGKERELVAGISSSGGSTYYADSVKGRFTISRDNAKNTVYLQMNSLKPEDTAVYYCAAVRISRTPRGLYEYWGQGTQVTVSS” is “high polyreactivity”; for “QVQLVESGGGLVQAGGSLRLSCAASGRIFYYNAMGWYRQAPGKERELVAAISYRGASTYYADSVKGRFTISRDNAKNTVYLQMNSLKPEDTAVYYCAAVTISKGFYPYDYWGQGTQVTVSS” it is “high polyreactivity”. In the case of “QVQLVESGGGLVQAGGSLRLSCAASGFTFYGYAMGWYIQAPGKERELVAAITGSGARTYYADSVKGRFTISRDNAKNTVYLQMNSLKPEDTAVYYCNKVGVTRVGYTYRVREYDYWGQGTQVTVSS”, the “polyreactivity (PSR sort gate)” value is recorded as “high polyreactivity”.

In the case of “QVQLVESGGGLVQAGGSLRLSCAASGRIFRYYAMGWYRQAPGKERELVAVINWSGGSTYYADSVKGRFTISRDNAKNTVYFQMNSLKPEDTAVYYCNVYSVYPQFNYWGQGTQVTVSS”, the “polyreactivity (PSR sort gate)” value is “high polyreactivity”. As to “QVQLVESGGGLVQAGGSLRLSCAASGRTFATNTMGWYRQAPGKERELVAAITFSGGSTYYADSVKGRFTISRDNAKNTVYLQMNSLKREDTAVYYCNVRSPYYSYRYRYGYWGHGTQVTVSS”, the “polyreactivity (PSR sort gate)” value is “high polyreactivity”. Regarding “QVQLVESGGGLVQAGGSLRLSCAASGFIYERNAMGWYRQAPGKERELVAAISGGGSTNYADSVKGRFTISRDNAKNTVYLQMNSLNPEDTAVYYCAADSWWYPFDYWGQGTQVTVSS”, the “polyreactivity (PSR sort gate)” value is “high polyreactivity”. The value for “QVQLVESGGGLVQAGGSLRLSCAASGLTFYSYAMGWYRQAPGKERELVADISWSGGSTYYADSVKGRFTISRDNAKNTVYLQMNSLQPEDTAVYYCAAEVFPGYDYWGQGTQVTVSS” was “low polyreactivity”; that for “QDQHVESGGGLVQAGGSLRLSCAASGSTFHLYAMGWYRQAPGKERELVATITWRTGSTYYADSVKGRFTISRDNAKNTVYLQMNSLKPEDTAVYYCAAYPYRYSWLDYWGQGTQVTVSS” was “high polyreactivity”; that for “QVQLVESGGGLVQAGGSLRLSCAASGRIFGYYTMGWYRQAPGKERELVADSSGGNTSYADSVKGRFTISRDNAKNTVYLQMNSLKPEDTAVYYCAKDLPGAWRGDDYWGQGTQVTVSS” was “low polyreactivity”. Take “QVQLVESAGGLVQAGGSLRLSCAASGLTFTTYAMGWYRQAPGKERELVAAISRRGSRTYYADSVKGRFTISRDNAKNTVYLQMNSLKPEDTAVYYCNALTGSFKTYSFDYWGQGTQVTVSS”: the “polyreactivity (PSR sort gate)” value is reported as “high polyreactivity”. The value for “QVQLVESGGGLVQAGGSLRLSCAASGSIFEWYAMGWYRQAPGKERELVADITYNGGSTYYADSVKGRFTISRDNAKNTVYLQMNSLKPEDTAVYYCAADYFVQVPDYYYASEYGYWGQATQVTVSS” was “low polyreactivity”; that for “QVQLVESGGGLVQAGGSLRLSCAASGRTFSAYARGWYRQAPGKERELVAAISRRGGSTYYADSVKGRFTISRDNAKNTVYLQMNSLKPEDTAVYYCAADVYKQYGYYYWGQGTLVTVSS” was “high polyreactivity”. Regarding “QVQLQESGGGLVQAGDSQRLSCAASGNSFRFTHMGWYRQAPGKERELVAASNAGSTTYYADSVKGRFTISRDNAKNTVYLQMKSLKPEDTAVYYCAVYYLGSGTFGYWGQGAQVTVSS”, the “polyreactivity (PSR sort gate)” value is recorded as “high polyreactivity”. The value for “QFQLVESGGGLVQAGGSLRLSCAASALIFTPNAMGSYIPAPGKESELVAAISSSGRTSYADSVKGRFTISRDNAKNAVYLQMNSLKPEDTAVYYSNATWRWTRRGYVYWGQGTQVTLSS” was “low polyreactivity”.

As for “QVQLVESAGGLVQAGGSLRLSCAASGRIFGYNAMGWYRQAPGKERELVAVITYSGGSTYYADSVKGRFTISRDNAKNTVYLQMNSLKPEDTAVYYCAKATTWGYFRVWSTRYYYWGQGTQVTVSS”, the “polyreactivity (PSR sort gate)” value is on record as “low polyreactivity”. As to “QVQLVESGGGLVQAGGSLRLSCAASGSIFGSYAMGWYRQAPGKERELVAAITSGGSTHYADSVKGRFTISRDNAKNTVYLQMNSLKPEDTAVYYCNAQALRLFWRYDYWGLGTQVTVSS”, the “polyreactivity (PSR sort gate)” value was “low polyreactivity”. The value for “QVQLVESGGGLVQAGGSLRLSCASSRINFYLYAMGWYRQAPGIERELVAAISRRGVSTYYADSVKGRFTISRDNAKNSVYLEMKSLKAEDTGVYYCAAAGFGYTGEEFWGQGTQVTVSS” was “high polyreactivity”; that for “QVQLVESGGGLVQAGGRLRLSCAASGITSDVYAMGWYRQAPGKERELVAAISSAGSTYYADSVKGRFTISRDNAKNTVYLQMNSLKPEDTAVYYCDAAGYPQTYLYYYWGQGTQVTVSS” was “low polyreactivity”. The entry for “QVQLVESGVGLLQAGGSLRISCAASGSIFFDNSMGRYRQAPGKERELVAAITWSGSRTYYADSVKGRFTISRDNAKNTVYLQMNSLKPEDTAVYYSNAVYWWYWALFTVGRYDYWGQGTQVTVSS” is “high polyreactivity”; for “QVQLEESGGGLVQAGGSLRLSCAASGRIFGVYAMGWYRQAPGKERELVAAISWSASSTYYADSVKGRFTISRDNAKNTVYLQMNSLKPEDTAVYYCNAEVLGFYELDYWGQGTQVTVSS” it is “high polyreactivity”. The entry for “QVQLVESGGGLVHAGGSLRLSCAASGSIFRPYAMGWYRQAPGKERELVAAISRRGGSTYYADSVKGRFTISRDNAKNTVYLQLISLKPEDTAVYYCAADHSGPSPYGYGYWGQGTQVTVSS” is “high polyreactivity”; for “QVQLVESGGGLVQAGGSLRLSCAASGFTFDDNAMGWYRQAPGKERELVATISYSDGNTYYADSVKGRFTISRDNAKNTVYLQMNSLKPEDTAVYYCAADEWAVYYIGLDYDYWGQGTQVTVSS” it is “low polyreactivity”; for “QVQLVESVGGLVQAGGSLRLSCADSGSIFAANAIGWFRQAPGKERELVAAISRSGNTYYADSVKGRFTISRDNAKNTVYLQMNSLKPEDTAVYYCAARRYAYGRTYGYWGQGTQVTVSS” it is “high polyreactivity”. For “QVQLVESGGGLVQAGGSLRLSCAASGSTFGYYAMGWYRQAPGKERELVAAITGSGGRTYYADSVKGRFTISRDNAKNTVYLQMNSLKPEDTAVYYCAARTYRTEFAYGSWGQGTQVTVSS”, the “polyreactivity (PSR sort gate)” value is recorded as “low polyreactivity”.

For “QVQLVESGGGLVQAGGSLRLTCDASGSTFYPYAMGWYRQAPWKERELVAAISSRDGRTYYADSVKGRFTISRDNAKNTVYLQMNSLKPEDTAVYYCAATSFNNGHRYDYWGQGTQVTVSS”, the “polyreactivity (PSR sort gate)” value is reported as “high polyreactivity”. The entry for “QVQLVESGGGLVQAGGSLRLSCAASGRTIYQYAMGWYRQAPGKERELVAAITDNGGRTYYADSVKGRFTISCDNAKNTVYLQMNSLKPEDTAVYYCAAEIWTYSYYVVDNGPYDYWGQGTQVTVSS” is “low polyreactivity”.

The values above are taken from the nanobody polyreactivity screen of Harvey et al. (2022).
